Reference: publication PMC2688778 (Structure (London, England : 1993), 2009)
Residue numbers refer to the chain shown, from its start.

Columns and labels:
Experiment in all cases: fluorescence anisotropy
RecE564 Y778A = biological target: T1, RecE564 Y778A (Escherichia coli K12, UniProt P15032 564-866, Y778A)
T1 sequence: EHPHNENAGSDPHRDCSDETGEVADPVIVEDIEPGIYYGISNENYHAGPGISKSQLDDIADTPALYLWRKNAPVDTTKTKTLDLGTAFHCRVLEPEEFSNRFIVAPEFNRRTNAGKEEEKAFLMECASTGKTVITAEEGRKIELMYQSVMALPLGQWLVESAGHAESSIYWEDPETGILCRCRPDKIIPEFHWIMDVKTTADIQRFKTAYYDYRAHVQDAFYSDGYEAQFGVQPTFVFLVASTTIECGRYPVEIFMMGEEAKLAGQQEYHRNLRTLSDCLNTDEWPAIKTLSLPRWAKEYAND

RecE564 R744A = biological target: T2, RecE564 R744A (Escherichia coli K12, UniProt P15032 564-866, R744A)
T2 sequence: T1 sequence with R181A, A215Y

RecE564 Q781A = biological target: T3, RecE564 Q781A (Escherichia coli K12, UniProt P15032 564-866, Q781A)
T3 sequence: T1 sequence with A215Y, Q218A

RecE564 Y785A = biological target: T4, RecE564 Y785A (Escherichia coli K12, UniProt P15032 564-866, Y785A)
T4 sequence: T1 sequence with A215Y, Y222A

RecE564 H652A = biological target: T5, RecE564 H652A (Escherichia coli K12, UniProt P15032 564-866, H652A)
T5 sequence: T1 sequence with H89A, A215Y

RecE564 K643A = biological target: T6, RecE564 K643A (Escherichia coli K12, UniProt P15032 564-866, K643A)
T6 sequence: T1 sequence with K80A, A215Y

B1: F25 (dsDNA)
DNA 1: TAGAGCTTAATTGCTGAATCTGGTG
DNA 2: CACCAGATTCAGCAATTAAGCTCTA
- Kd (RecE564 Y778A): 130 ± 20 nM
- Kd (RecE564 R744A): 95 ± 8 nM
- Kd (RecE564 Q781A): 70 ± 20 nM
- Kd (RecE564 Y785A): 98 ± 9 nM
- Kd (RecE564 H652A): 130 ± 10 nM
- Kd (RecE564 K643A): 210 ± 6 nM
